Laboratory results published in PMC8239432, “Cross-Reactive SARS-CoV-2 Neutralizing Antibodies From Deep Mining of Early Patient Responses” (Frontiers in Immunology, 2021).

Legend:
Details in all cases: both partners purified
[1] = biological target: T1, SARS-CoV-2 RBD-rCD4-Avi-His (SARS-CoV-2 (reference sequence), UniProt P0DTC2); test: SPR
T1 construct: also called RBD-rCD4-His

[2] = biological target: T2, SARS-CoV-2 RBD-rCD4-Avi-His (SARS-CoV-2, UniProt P0DTC2); test: SPR
T2 construct: also called RBD-rCD4-His; monomeric RBD; source: Expi293F, purified (Nickel-NTA agarose)

SARS-CoV-1 RBD = biological target: T3, SARS-CoV-1 RBD (SARS-CoV-1 (SARS-CoV); isolate not …, UniProt P59594); test: binding assay based on time resolved fluorescence (TRF)
T3 construct: also called RBD subdomain of the SARS-CoV-1 spike protein; source: Expi293F, purified (Nickel-NTA agarose)

[3] = biological target: T4, MERS-CoV S1 with a His tag (MERS-CoV, isolate EMC/2012 (from …, UniProt K0BRG7)); test: as above
T4 construct: source: bought: Sino Biological

[4] = biological target: T5, SARS CoV-2 RBD (Acro BioSystems, SPDC52H3) (SARS-CoV-2 (reference sequence), UniProt P0DTC2); test: BLI
T5 construct: source: bought: Acro BioSystems

B1: ION_360 IgG1 (antibody, V domains shown)
VH: EVQLVQSGGGLVKPGGSLRLSCAASGITVSSNYMSWVRQAPGKGLEWVSVIYSGGSTYYADSVKGRFTISRDNSKNTLYLQMNSLRAEDTAVYYCARGEGGSIVGVTSDYWGQGTLVTVSS
VL: DIQMTQSPSSLSASVGDRVTITCRASQSISRYLNWYQQKPGKAPKLLIYAASSLQSGVPSRFSGSGSETEFTLTISSLHPDDFATYYCQQSYSTLPYTFGQGTKVEIK
notes: source: ExpiCHO or Expi293, purified (protein A, SEC)
koff [1]: 0.000279 s⁻¹
kon [1]: 188000 M⁻¹ s⁻¹

B2: ION_360 IgG1 (antibody, V domains shown)
VH: B1 VH
VL: B1 VL
Kd [2]: 1.5 nM

B3: ION_300 IgG1 (antibody, V domains shown)
VH: QVQLVQSGAEVKKPGESLKISCKGSGYSFTSYWIGWVRQMPGKGLEWMGIIYPGDSDTRYSPSFQGQVTISADKSISTAYLQWSSLKASDTAMYYCARHPSPYYYGSGSYSGGFDYWGQGTLVTVSS
VL: DIVMTQSPGTLSLSPGERATLSCRASQSVSSSYLAWYQQKPGQAPRLLIYGASTRATGIPARFSGSGSGTEFTLTISSLQSEDFAVYYCQQYDNWPLMHTFGQGTKLEIK
notes: as for B1
Kd [1]: 3.4 nM
koff [1]: 0.000775 s⁻¹
kon [1]: 252000 M⁻¹ s⁻¹

B4: ION_300 IgG1 (antibody, V domains shown)
VH: B3 VH
VL: B3 VL
binding result (SARS-CoV-1 RBD): binds
binding result [3]: no binding
binding result [4]: binds
